The assay has as its target revised CpaD from Aspergillus flavus NRRL3357 (full length, with the 43 N-terminal residues added) (Aspergillus flavus NRRL3357). Kind of assay: SEC.

The record followed here is publication PMC2783589.

Broadly, the stoichiometry N is a count of units in the complex or per binding partner.

The substance “revised CpaD from Aspergillus flavus NRRL3357 (full length, with the 43 N-terminal residues added) (enzyme)” came in with a stoichiometry N of 2.
